Experimental data from patent publication US20190367626A1.

Assays:
TRAILshort = TRAILshort (UniProt P50591); assay: flow cytometry of 293T cells transfected with WT TRAILshort, isotype control staining
P76A TRAILshort = assay: flow cytometry of 293T cells transfected with P76A TRAILshort, isotype control staining

TRAILshort, sequence (P50591 other isoform, or with tags, fused parts or gaps): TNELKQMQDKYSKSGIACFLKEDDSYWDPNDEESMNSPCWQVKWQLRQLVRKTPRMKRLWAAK

C555 labeled anti-Ig3 Isotype control (antibody)
percent of cells in the gate (TRAILshort): 3.2%
percent of cells in the gate (P76A TRAILshort): 2.2%
